Values quoted from earlier work, collected in publication PMC4048747.
pKd: −log10 of the molar value.

Target: IGF-1R (UniProt P08069)
UniProt P08069, sequence (P08069 31-736, chain 1 of 2): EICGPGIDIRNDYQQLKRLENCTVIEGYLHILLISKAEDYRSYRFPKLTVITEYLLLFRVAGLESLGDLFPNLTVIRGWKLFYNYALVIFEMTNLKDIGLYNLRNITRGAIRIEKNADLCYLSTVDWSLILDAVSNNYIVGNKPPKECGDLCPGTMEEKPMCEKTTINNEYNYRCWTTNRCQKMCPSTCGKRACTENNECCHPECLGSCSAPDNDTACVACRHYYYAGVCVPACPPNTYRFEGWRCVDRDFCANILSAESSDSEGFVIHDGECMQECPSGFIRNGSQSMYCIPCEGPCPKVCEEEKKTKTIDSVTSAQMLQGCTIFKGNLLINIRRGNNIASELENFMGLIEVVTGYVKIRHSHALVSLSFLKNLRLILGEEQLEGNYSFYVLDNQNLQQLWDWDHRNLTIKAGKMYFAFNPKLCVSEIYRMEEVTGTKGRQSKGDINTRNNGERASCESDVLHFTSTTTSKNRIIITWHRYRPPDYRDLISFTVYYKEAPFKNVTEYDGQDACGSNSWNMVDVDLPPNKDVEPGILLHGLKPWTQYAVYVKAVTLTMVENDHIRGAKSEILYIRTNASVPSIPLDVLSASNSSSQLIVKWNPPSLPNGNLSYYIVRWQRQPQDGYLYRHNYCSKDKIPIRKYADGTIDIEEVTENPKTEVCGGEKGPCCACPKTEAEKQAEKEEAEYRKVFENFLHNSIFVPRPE
UniProt P08069, sequence (P08069 741-935, chain 2 of 2): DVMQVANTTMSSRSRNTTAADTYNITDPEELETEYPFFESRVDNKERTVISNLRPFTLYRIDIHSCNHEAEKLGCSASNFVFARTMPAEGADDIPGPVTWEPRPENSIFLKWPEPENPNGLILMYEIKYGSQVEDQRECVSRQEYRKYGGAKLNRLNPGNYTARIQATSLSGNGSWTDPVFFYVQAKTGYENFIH

**Q.** With Decorin (from UniProt P07585) as the substance, how does the pKd read?
**A.** 7.74
